Biological target: XPB–p62–p44–p34 sub-complex (human, UniProt P19447 1-782; P32780 1-548; Q13888 1-395; Q13889 1-308)
Test: SEC

XPB–p62–p44–p34 sub-complex, sequence (P19447 whole entry, chain 1 of 4): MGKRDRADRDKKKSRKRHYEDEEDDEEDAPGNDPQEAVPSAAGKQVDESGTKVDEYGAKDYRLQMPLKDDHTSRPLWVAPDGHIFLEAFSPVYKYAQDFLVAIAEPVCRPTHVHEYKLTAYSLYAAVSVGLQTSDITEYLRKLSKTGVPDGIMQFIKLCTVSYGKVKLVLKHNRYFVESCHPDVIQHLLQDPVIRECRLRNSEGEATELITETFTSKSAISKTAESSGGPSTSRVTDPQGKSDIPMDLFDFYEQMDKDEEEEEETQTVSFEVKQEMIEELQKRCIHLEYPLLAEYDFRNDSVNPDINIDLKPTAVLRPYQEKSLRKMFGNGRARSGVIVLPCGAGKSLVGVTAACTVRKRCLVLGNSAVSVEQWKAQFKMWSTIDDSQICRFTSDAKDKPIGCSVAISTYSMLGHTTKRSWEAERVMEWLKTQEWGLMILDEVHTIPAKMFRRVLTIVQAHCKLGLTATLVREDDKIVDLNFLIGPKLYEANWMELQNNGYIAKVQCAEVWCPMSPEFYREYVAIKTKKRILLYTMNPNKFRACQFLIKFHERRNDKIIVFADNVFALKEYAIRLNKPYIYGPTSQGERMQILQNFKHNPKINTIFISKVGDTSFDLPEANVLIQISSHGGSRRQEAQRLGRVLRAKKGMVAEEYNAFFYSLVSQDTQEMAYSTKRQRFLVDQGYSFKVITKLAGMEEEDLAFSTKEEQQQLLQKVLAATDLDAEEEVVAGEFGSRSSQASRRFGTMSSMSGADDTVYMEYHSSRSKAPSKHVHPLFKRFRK
XPB–p62–p44–p34 sub-complex, sequence (P32780 whole entry, chain 2 of 4): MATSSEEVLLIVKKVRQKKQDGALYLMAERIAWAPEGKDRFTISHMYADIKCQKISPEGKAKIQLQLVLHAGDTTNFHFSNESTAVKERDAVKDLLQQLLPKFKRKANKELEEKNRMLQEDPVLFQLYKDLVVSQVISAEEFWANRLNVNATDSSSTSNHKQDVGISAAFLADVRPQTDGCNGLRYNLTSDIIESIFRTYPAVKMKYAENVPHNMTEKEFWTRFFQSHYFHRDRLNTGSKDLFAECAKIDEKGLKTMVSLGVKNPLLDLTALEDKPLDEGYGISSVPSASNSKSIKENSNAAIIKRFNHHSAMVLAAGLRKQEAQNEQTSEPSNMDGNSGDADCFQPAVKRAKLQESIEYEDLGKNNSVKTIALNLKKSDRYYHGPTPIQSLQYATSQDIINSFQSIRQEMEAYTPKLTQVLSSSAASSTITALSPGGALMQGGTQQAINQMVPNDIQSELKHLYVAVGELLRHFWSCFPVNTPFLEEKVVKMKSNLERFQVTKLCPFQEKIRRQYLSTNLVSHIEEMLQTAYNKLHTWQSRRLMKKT
XPB–p62–p44–p34 sub-complex, sequence (Q13888 whole entry, chain 3 of 4): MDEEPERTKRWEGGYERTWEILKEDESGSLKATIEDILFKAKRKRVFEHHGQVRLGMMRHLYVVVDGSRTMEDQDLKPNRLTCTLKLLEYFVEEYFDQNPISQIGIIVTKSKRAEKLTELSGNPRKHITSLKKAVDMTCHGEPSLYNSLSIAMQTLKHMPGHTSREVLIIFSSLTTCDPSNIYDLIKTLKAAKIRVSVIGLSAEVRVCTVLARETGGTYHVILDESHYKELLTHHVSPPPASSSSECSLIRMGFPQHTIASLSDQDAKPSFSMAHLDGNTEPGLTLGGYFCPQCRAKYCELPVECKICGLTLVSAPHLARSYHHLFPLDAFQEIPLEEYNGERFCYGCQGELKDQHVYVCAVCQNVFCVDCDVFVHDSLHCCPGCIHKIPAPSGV
XPB–p62–p44–p34 sub-complex, sequence (Q13889 whole entry, chain 4 of 4): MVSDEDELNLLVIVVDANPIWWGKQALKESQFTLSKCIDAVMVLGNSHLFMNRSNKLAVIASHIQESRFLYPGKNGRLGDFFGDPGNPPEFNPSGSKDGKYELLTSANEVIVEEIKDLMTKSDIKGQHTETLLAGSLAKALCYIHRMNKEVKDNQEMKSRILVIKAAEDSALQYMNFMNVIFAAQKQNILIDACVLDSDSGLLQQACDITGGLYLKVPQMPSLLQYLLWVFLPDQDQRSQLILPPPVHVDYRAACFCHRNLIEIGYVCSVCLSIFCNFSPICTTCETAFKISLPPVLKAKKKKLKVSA

B1: GST–p8 (natural protein, human, UniProt Q6ZYL4 1-71, looked up)
chain: MVNVLKGVLIECDPAMKQFLLYLDESNALGKKFIIQDIDDTHVFVIAELVNVLQERVGELMDQNAFSLTQK
- binding result: binds

From PMC4265565 (Protein expression and purification, 2012)
